In article PMC11838285 (bioRxiv, 2025):

Target: RPB1 subunit of human RNA Polymerase II (human, UniProt P24928 1-1970)
Assay: cryo-EM structure

B1: RECQL5_(1–620) D157A (domain or fragment)
chain: MSSHHTTFPFDPERRVRSTLKKVFGFDSFKTPLQESATMAVVKGNKDVFVCMPTGAGKSLCYQLPALLAKGITIVVSPLIALIQDQVDHLLTLKVRVSSLNSKLSAQERKELLADLEREKPQTKILYITPEMAASSSFQPTLNSLVSRHLLSYLVVAEAHCVSQWGHDFRPDYLRLGALRSRLGHAPCVALTATATPQVQEDVFAALHLKKPVAIFKTPCFRANLFYDVQFKELISDPYGNLKDFCLKALGQEADKGLSGCGIVYCRTREACEQLAIELSCRGVNAKAYHAGLKASERTLVQNDWMEEKVPVIVATISFGMGVDKANVRFVAHWNIAKSMAGYYQESGRAGRDGKPSWCRLYYSRNDRDQVSFLIRKEVAKLQEKRGNKASDKATIMAFDALVTFCEELGCRHAAIAKYFGDALPACAKGCDHCQNPTAVRRRLEALERSSSWSKTCIGPSQGNGFDPELYEGGRKGYGDFSRYDEGSGGSGDEGRDEAHKREWNLFYQKQMQLRKGKDPKIEEFVPPDENCPLKEASSRRIPRLTVKAREHCLRLLEEALSSNRQSTRTADEADLRAKAVELEHETFRNAKVANLYKASVLKKVADIHRASKDGQPYDM
Q: Does B1 bind?
A: binds
